{
  "source": "paper PMC11594477",
  "binders": {"B1": {"name": "Neural precursor cell expressed developmentally down-regulated 4-like (NEDD4L), endogenous, Q96PU5-5 1-955 (enzyme)", "chain": "MATGLGEPVYGLSEDEGESRILRVKVVSGIDLAKKDIFGASDPYVKLSLYVADENRELALVQTKTIKKTLNPKWNEEFYFRVNPSNHRLLFEVFDENRLTRDDFLGQVDVPLSHLPTEDPTMERPYTFKDFLLRPRSHKSRVKGFLRLKMAYMPKNGGQDEENSDQRDDMEHGWEVVDSNDSASQHQEELPPPPLPPGWEEKVDNLGRTYYVNHNNRTTQWHRPSLMDVSSESDNNIRQINQEAAHRRFRSRRHISEDLEPEPSEGGDVPEPWETISEEVNIAGDSLGLALPPPPASPGSRTSPQELSEELSRRLQITPDSNGEQFSSLIQREPSSRLRSCSVTDAVAEQGHLPPPSVAYVHTTPGLPSGWEERKDAKGRTYYVNHNNRTTTWTRPIMQLAEDGASGSATNSNNHLIEPQIRRPRSLSSPTVTLSAPLEGAKDSPVRRAVKDTLSNPQSPQPSPYNSPKPQHKVTQSFLPPGWEMRIAPNGRPFFIDHNTKTTTWEDPRLKFPVHMRSKTSLNPNDLGPLPPGWEERIHLDGRTFYIDHNSKITQWEDPRLQNPAITGPAVPYSREFKQKYDYFRKKLKKPADIPNRFEMKLHRNNIFEESYRRIMSVKRPDVLKARLWIEFESEKGLDYGGVAREWFFLLSKEMFNPYYGLFEYSATDNYTLQINPNSGLCNEDHLSYFTFIGRVAGLAVFHGKLLDGFFIRPFYKMMLGKQITLNDMESVDSEYYNSLKWILENDPTELDLMFCIDEENFGQTYQVDLKPNGSEIMVTNENKREYIDLVIQWRFVNRVQKQMNAFLEGFTELLPIDLIKIFDENELELLMCGLGDVDVNDWRQHSIYKNGYCPNHPVIQWFWKAVLLMDAEKRIRLLQFVTGTSRVPMNGFAELYGSNGPQLFTIEQWGSPEKLPRAHTCFNRLDLPPYETFEDLREKLLMAVENAQGFEGVD"}},
  "target": "human Flag-tagged RAC2 T108A mutant (human), P15153",
  "test": "co-IP; Caki-1 cells transfected with Flag-tagged WT, S86A or T108A RAC2; interaction with NEDD4L quantified relative to WT",
  "conditions": "remark: other sources report otherwise",
  "data": [
    {"binder": "B1", "values": [
      {"measurement": "interaction, percent of the WT level (% of the WT level)", "value": 20}
    ]}
  ]
}
